Data reported in paper PMC10980815, “Cell surface patching via CXCR4-targeted nanothreads for cancer metastasis inhibition” (Nature Communications, 2024).
Ends that are not written are not given here. HPMA copolymer = HPMA copolymer made by RAFT copolymerization of HPMA with N-(3-aminopropyl)methacrylamide (APMA), bearing maleimide groups for grafting

Experiment: Pharmacokinetics at each cycle of a four-round treatment regimen
Assay type: in vivo, female mice
Design: PK curves: unit not given here

## P-CM2-Cy3: Cy3-labeled P-CM2 (C(HPMA copolymer)YGGEVSALEKEVSALEKKNSALEKEVSALEKEVSALEK; also: Cy3 label on conjugate, position not given here)
Round 1, Time 0.041667 Day, replicate 1
  PK curves: 163.747
Round 1, Time 0.041667 Day, replicate 2
  PK curves: 180.755
Round 1, Time 0.041667 Day, replicate 3
  PK curves: 215.82
Round 1, Time 0.041667 Day, replicate 4
  PK curves: 227.965
Round 1, Time 0.041667 Day, replicate 5
  PK curves: 272.14
Round 1, Time 0.083333 Day, replicate 1
  PK curves: 152.881
Round 1, Time 0.083333 Day, replicate 2
  PK curves: 155.096
Round 1, Time 0.083333 Day, replicate 3
  PK curves: 158.378
Round 1, Time 0.083333 Day, replicate 4
  PK curves: 173.813
Round 1, Time 0.083333 Day, replicate 5
  PK curves: 181.609
Round 1, Time 0.166667 Day, replicate 1
  PK curves: 117.124
Round 1, Time 0.166667 Day, replicate 2
  PK curves: 133.5
Round 1, Time 0.166667 Day, replicate 3
  PK curves: 138.292
Round 1, Time 0.166667 Day, replicate 4
  PK curves: 141.138
Round 1, Time 0.166667 Day, replicate 5
  PK curves: 149.467
Round 1, Time 0.25 Day, replicate 1
  PK curves: 99.512
Round 1, Time 0.25 Day, replicate 2
  PK curves: 115.311
Round 1, Time 0.25 Day, replicate 3
  PK curves: 115.69
Round 1, Time 0.25 Day, replicate 4
  PK curves: 124.268
Round 1, Time 0.25 Day, replicate 5
  PK curves: 126.538
Round 1, Time 0.333333 Day, replicate 1
  PK curves: 72.638
Round 1, Time 0.333333 Day, replicate 2
  PK curves: 80.332
Round 1, Time 0.333333 Day, replicate 3
  PK curves: 81.864
Round 1, Time 0.333333 Day, replicate 4
  PK curves: 87.045
Round 1, Time 0.333333 Day, replicate 5
  PK curves: 96.736
Round 1, Time 0.5 Day, replicate 1
  PK curves: 53.965
Round 1, Time 0.5 Day, replicate 2
  PK curves: 58.639
Round 1, Time 0.5 Day, replicate 3
  PK curves: 59.336
Round 1, Time 0.5 Day, replicate 4
  PK curves: 66.884
Round 1, Time 0.5 Day, replicate 5
  PK curves: 78.186
Round 1, Time 1 Day, replicate 1
  PK curves: 21.997
Round 1, Time 1 Day, replicate 2
  PK curves: 25.01
Round 1, Time 1 Day, replicate 3
  PK curves: 29.67
Round 1, Time 1 Day, replicate 4
  PK curves: 31.811
Round 1, Time 1 Day, replicate 5
  PK curves: 36.626
Round 1, Time 2 Day, replicate 1
  PK curves: 11.902
Round 1, Time 2 Day, replicate 2
  PK curves: 17.163
Round 1, Time 2 Day, replicate 3
  PK curves: 19.932
Round 1, Time 2 Day, replicate 4
  PK curves: 21.481
Round 1, Time 2 Day, replicate 5
  PK curves: 24.221
Round 1, Time 3 Day, replicate 1
  PK curves: 3.355
Round 1, Time 3 Day, replicate 2
  PK curves: 5.764
Round 1, Time 3 Day, replicate 3
  PK curves: 7.718
Round 1, Time 3 Day, replicate 4
  PK curves: 11.103
Round 1, Time 3 Day, replicate 5
  PK curves: 11.877
Round 1, same
  AUC0-t: 2910.449 ± 479.173 ng·h/mL
  AUC0-∞: 3143.497 ± 607.036 ng·h/mL
  MRT0-t: 17.874 ± 1.409 h
  MRT0-∞: 23.669 ± 4.167 h
Round 1 of four-round Nanothread-1→Nanothread-2 regimen, blood fluorescence, DAS 2.0, mean ± SD, n = 5
  T1/2z: 19.104 ± 3.483 h
Round 2, Time 0.041667 Day, replicate 1
  PK curves: 166.289
Round 2, Time 0.041667 Day, replicate 2
  PK curves: 169.535
Round 2, Time 0.041667 Day, replicate 3
  PK curves: 192.765
Round 2, Time 0.041667 Day, replicate 4
  PK curves: 283.095
Round 2, Time 0.041667 Day, replicate 5
  PK curves: 308.888
Round 2, Time 0.083333 Day, replicate 1
  PK curves: 129.263
Round 2, Time 0.083333 Day, replicate 2
  PK curves: 143.311
Round 2, Time 0.083333 Day, replicate 3
  PK curves: 159.105
Round 2, Time 0.083333 Day, replicate 4
  PK curves: 167.258
Round 2, Time 0.083333 Day, replicate 5
  PK curves: 213.448
Round 2, Time 0.166667 Day, replicate 1
  PK curves: 118.029
Round 2, Time 0.166667 Day, replicate 2
  PK curves: 120.594
Round 2, Time 0.166667 Day, replicate 3
  PK curves: 139.935
Round 2, Time 0.166667 Day, replicate 4
  PK curves: 140.364
Round 2, Time 0.166667 Day, replicate 5
  PK curves: 140.694
Round 2, Time 0.25 Day, replicate 1
  PK curves: 88.6458
Round 2, Time 0.25 Day, replicate 2
  PK curves: 101.112
Round 2, Time 0.25 Day, replicate 3
  PK curves: 104.483
Round 2, Time 0.25 Day, replicate 4
  PK curves: 106.877
Round 2, Time 0.25 Day, replicate 5
  PK curves: 110.672
Round 2, Time 0.333333 Day, replicate 1
  PK curves: 69.5736
Round 2, Time 0.333333 Day, replicate 2
  PK curves: 78.4476
Round 2, Time 0.333333 Day, replicate 3
  PK curves: 88.3019
Round 2, Time 0.333333 Day, replicate 4
  PK curves: 89.2405
Round 2, Time 0.333333 Day, replicate 5
  PK curves: 90.1636
Round 2, Time 0.5 Day, replicate 1
  PK curves: 43.1833
Round 2, Time 0.5 Day, replicate 2
  PK curves: 45.6973
Round 2, Time 0.5 Day, replicate 3
  PK curves: 51.9942
Round 2, Time 0.5 Day, replicate 4
  PK curves: 68.9589
Round 2, Time 0.5 Day, replicate 5
  PK curves: 80.0862
Round 2, Time 1 Day, replicate 1
  PK curves: 16.0352
Round 2, Time 1 Day, replicate 2
  PK curves: 27.0822
Round 2, Time 1 Day, replicate 3
  PK curves: 31.0181
Round 2, Time 1 Day, replicate 4
  PK curves: 36.116
Round 2, Time 1 Day, replicate 5
  PK curves: 40.972
Round 2, Time 2 Day, replicate 1
  PK curves: 12.4543
Round 2, Time 2 Day, replicate 2
  PK curves: 13.9537
Round 2, Time 2 Day, replicate 3
  PK curves: 16.9804
Round 2, Time 2 Day, replicate 4
  PK curves: 22.3399
Round 2, Time 2 Day, replicate 5
  PK curves: 24.6061
Round 2, Time 3 Day, replicate 1
  PK curves: 4.968
Round 2, Time 3 Day, replicate 2
  PK curves: 5.058
Round 2, Time 3 Day, replicate 3
  PK curves: 5.667
Round 2, Time 3 Day, replicate 4
  PK curves: 9.298
Round 2, Time 3 Day, replicate 5
  PK curves: 13.6533
Round 2, same
  AUC0-t: 2845.842 ± 670.957 ng·h/mL
  AUC0-∞: 3070.777 ± 804.281 ng·h/mL
  MRT0-t: 17.76 ± 1.068 h
  MRT0-∞: 23.374 ± 3.332 h
  T1/2z: 18.965 ± 3.022 h
